Laboratory results as given in US20150011431A1 (Scripps Research, published 2015).

How the values were obtained:
[1] = target: T1, CXCR1 (UniProt P25024 1-350, limits assumed); assay: flow cytometry; fluorescence on CXCR1-U2OS cells over fluorescence on parental U2OS cells
T1 construct: whole, on cells; DiscoveRx cells engineered with a luminescent reporter enzyme for beta-arrestin recruitment; also called CXCR1-U2OS; U2OS-CXCR1
T1 sequence (looked up): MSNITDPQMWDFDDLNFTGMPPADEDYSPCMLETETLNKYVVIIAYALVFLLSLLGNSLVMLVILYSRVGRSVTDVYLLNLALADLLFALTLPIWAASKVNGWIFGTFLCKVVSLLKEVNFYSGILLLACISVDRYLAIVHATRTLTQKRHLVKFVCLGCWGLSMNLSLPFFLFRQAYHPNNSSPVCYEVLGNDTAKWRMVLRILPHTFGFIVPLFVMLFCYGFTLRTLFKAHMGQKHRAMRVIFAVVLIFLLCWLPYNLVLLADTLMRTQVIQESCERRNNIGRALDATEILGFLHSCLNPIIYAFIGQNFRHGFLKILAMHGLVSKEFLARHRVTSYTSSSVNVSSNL
Experimental: In an exemplary method, BLV1H12 IgG comprising a CDR3 with an IL-8 insert (e.g., the IL-8 sequence replaced a portion of the CDR3) was evaluated for binding to CXCR1 expressing cells by flow cytometry. Briefly, a cell line expressing functionally validated CXCR1 derived from U2OS cells was obtained from DiscoveRx and cultured per manufacturer's instructions (Cat#93-0226C3, DiscoveRx Corporation, Freemont, Calif.). The parental cell line U2OS was obtained from ATCC and cultured under the same conditions as the CXCR1 cells. Cell culture supernatants were then tested for binding to cells by flow cytometry. The adherent U2OS or CXCR1-U2OS cells were dissociated with Accutase (Innovative Cell Technologies, Inc., San Diego, Calif.), neutralized with an equal volume of media containing 10% serum, centrifuged at 1000 g, and resuspended in PBS with 2% BSA. Next, cells were dispensed into microtiter plates to achieve between 30,000 to 300,000 cells per well, centrifuged again, and resuspended in cell culture supernatant containing expressed IgG, or a dilution of IgG-containing cell culture supernatant. A fluorescent-conjugated anti-Human Fc antibody was used to detect binding of the expressed antibody to cells.
Alternatively, using the BLV1H12 light chain variable region as a guide, the human germline sequences identified with closest homology were V1-47 and V1-51.

[2] = target: T1, CXCR1; assay: flow cytometry with 2 ug/ml heparin sulfate, IgG normalized to 10 nM; CXCR1-U2OS against parental U2OS cells
Experimental: Cell culture supernatants were then tested for binding to cells by flow cytometry. The adherent U2OS or CXCR1-U2OS cells were dissociated with Accutase (Innovative Cell Technologies, Inc., San Diego, Calif.), neutralized with an equal volume of media containing 10% serum, centrifuged at 1000 g, and resuspended in PBS with 2% BSA. Next, cells were dispensed into microtiter plates to achieve between 30,000 to 300,000 cells per well, centrifuged again, and resuspended in cell culture supernatant containing expressed IgG, or a dilution of IgG-containing cell culture supernatant. A fluorescent-conjugated anti-Human Fc antibody was used to detect binding of the expressed antibody to cells.
In an exemplary method, variants of V1-51 were made by overlap PCR and subcloned into pFuse vector for expression as described in Example 4. […] These V1-51 variants were paired with heavy chains encoding VH4-34+CDR3-IL8 (SEQ ID NO: 430), VH4-34+CDR3-IL8_CDR1 Cow (SEQ ID NO: 432), VH4-34+CDR3-IL8_CDR2 Cow (SEQ ID NO: 433), or VH4-34+CDR3-IL8_CDR1 Cow CDR2 Cow, (SEQ ID NO: 436). Transfections and ELISA were carried out as described above, and flow cytometry was used to evaluate CXCR1 binding specificity as previously described, with the modification that cells were resuspended in 2% BSA in PBS plus 2 ug/ml Heparin sulfate, and IgGs were normalized to 10 nM during incubation on cells.

B1: IgG with VH4-34+CDR3-IL8_CDR1 Cow_CDR2 Cow and light chain V1-51 (antibody)
heavy: not shown
light: QSVLTQPPSVSAAPGQKVTISCSGSSSNIGNNYVSWYQQLPGTAPKLLIYDNNKRPSGIPDRFSGSKSGTSATLGITGLQTGDEADYYCASAEDSSSNAVFGSGTTLTVLGQPKAAPSVTLFPPSSEELQANKATLVCLISDFYPGAVTVAWKADSSPVKAGVETTTPSKQSNNKYAASSYLSLTPEQWKSHRSYSCQVTHEGSTVEKTVAPTECS
notes: IgG, human IgG1 CH1-CH2-CH3; supernatant; also called Cow / Cow / V1-51; VH4-34 CDR3-IL8 CDR1-Cow & CDR2-Cow with V1-51
CXCR1/Parental Ratio [1]: 3.1
CXCR1 specificity [2]: 11.1
